Earlier results on one substance are cited in paper PMC7755605.

The target in the data set is TRAF6 (Homo sapiens) (UniProt Q9Y4K3).
TRAF6 (Homo sapiens), sequence (Q9Y4K3 whole entry): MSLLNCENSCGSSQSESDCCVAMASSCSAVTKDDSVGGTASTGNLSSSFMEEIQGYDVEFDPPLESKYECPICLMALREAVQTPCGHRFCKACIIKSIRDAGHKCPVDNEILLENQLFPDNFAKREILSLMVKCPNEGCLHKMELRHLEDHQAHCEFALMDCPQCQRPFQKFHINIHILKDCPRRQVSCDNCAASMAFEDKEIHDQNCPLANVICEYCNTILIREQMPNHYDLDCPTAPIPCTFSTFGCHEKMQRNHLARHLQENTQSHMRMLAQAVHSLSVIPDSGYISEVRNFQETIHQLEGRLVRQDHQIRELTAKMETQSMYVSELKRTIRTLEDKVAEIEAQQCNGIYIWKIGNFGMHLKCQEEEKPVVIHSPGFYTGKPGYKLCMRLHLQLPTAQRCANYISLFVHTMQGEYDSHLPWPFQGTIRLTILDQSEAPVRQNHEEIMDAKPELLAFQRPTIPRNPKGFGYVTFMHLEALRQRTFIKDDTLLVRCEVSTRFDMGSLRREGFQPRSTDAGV

TRANCE-R, sequence (Q9Y6Q6 30-616): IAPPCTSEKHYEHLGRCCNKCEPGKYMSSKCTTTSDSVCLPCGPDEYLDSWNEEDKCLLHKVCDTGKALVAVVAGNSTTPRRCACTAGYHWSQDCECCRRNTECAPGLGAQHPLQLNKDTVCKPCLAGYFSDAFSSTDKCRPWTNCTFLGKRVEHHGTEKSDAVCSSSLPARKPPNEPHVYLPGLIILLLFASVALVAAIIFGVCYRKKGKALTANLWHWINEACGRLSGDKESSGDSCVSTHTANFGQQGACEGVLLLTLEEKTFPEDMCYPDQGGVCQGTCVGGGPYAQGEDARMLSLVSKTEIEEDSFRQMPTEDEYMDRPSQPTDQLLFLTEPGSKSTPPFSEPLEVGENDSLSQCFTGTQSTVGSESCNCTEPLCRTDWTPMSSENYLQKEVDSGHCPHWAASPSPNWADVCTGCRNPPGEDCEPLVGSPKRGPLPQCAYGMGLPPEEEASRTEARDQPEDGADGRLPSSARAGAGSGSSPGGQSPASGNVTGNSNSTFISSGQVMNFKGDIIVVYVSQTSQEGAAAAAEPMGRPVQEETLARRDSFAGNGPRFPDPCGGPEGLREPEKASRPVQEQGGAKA

In the case of TRANCE-R (from UniProt Q9Y6Q6), the Kd (commonly the equilibrium constant for the complex coming apart) was 84 µM.
